Columns and labels:
H. halys = settings: added to a trap containing the two principle components of the H. halys pheromone; cited from earlier work
[1] = TPS activity assay of recombinant M. histrionica IDS-like proteins, GC-MS of hexane extracts; type: biochemical, Murgantia histrionica
Description: (§1) Assays with heterologously expressed protein were performed in assay buffer (see above) in a total volume of 250 μl with partially purified protein, 1 mM DTT, and 50 µM allylic substrate [(E,E)-, (Z,E)- or (Z,Z)-FPP] and incubated at 30° C. for 1 h with a 250 μL hexane overlay. Assays were stopped on ice and compounds extracted by mixing (vortex) at maximum speed for . . . 15 sec. Phases were separated by centrifugation at 4000×g for 10 min and the hexane phase was removed and dried over MgSO4 One μl of liquid sample was injected in splitless mode and analyzed by GC-MS. For identification of the MhTPS product, assays were scaled up by incubating 1 mL protein in a 7 mL screw top test tube and the obtained hexane extract was used for further analysis. To determine enzyme kinetic parameters, assays were performed in a final volume of 50 μL with 0.3 μg partially purified, E. coli expressed MhTPS enzyme and increasing concentrations of [1-3H]-(E,E)-FPP (64 uCi mmol-1). Assays were incubated in triplicate at 30° C. for 5 min prior to extraction of the reaction product with 250 μl hexane. Quantification of the radioactive product were as described by Tholl et al. (Tholl et al., 2005). Calculation of Km and Vmax values was performed by rectangular hyperbolic regression analysis using the Hyperbolic Regression Analysis (HYPER 1.01) software (J. S. Easterby, University of Liverpool).
(§2) GC-MS analysis was performed by liquid injection at 240° C. running in split 5 mode and separated on a GC-2010 gas chromatograph (Shimadzu, Kyoto, Japan) using a 30 m×0.25 mm i.d.×0.25 μm film Zebron ZB-XLB column coupled with a QP2010S mass spectrometer (Shimadzu). The GC program was as follows: 40° C. with 2 min hold, then raised to 220° C. at 5° C./min, then raised to 240° C. at 70° C./min followed by a 2 min hold time. Mass spectrometry was performed with an ion source temperature of 240° C., interface temperature of 280° C., electron ionization (EI) potential of 70 eV and scan range of 50 to 400 atomic mass units. Helium was used as a carrier gas at 1.9 mL/min. Terpene olefin products were identified by comparison of retention times and mass spectra with those of authentic standards.

[2] = Kinetic analysis of E. coli expressed MhTPS with [1-3H]-(E,E)-FPP; type: biochemical, Murgantia histrionica; settings: (E,E)-FPP as the substrate
Description: as §1

[3] = IDS (prenyltransferase) activity assay of recombinant M. histrionica proteins, LC-MS/MS; type: biochemical, Murgantia histrionica; settings: IPP and DMAPP as substrates
Description: (§3) For enzyme assays, 96 μl of partially purified protein were mixed with 2 μl 50 μM isopentenyl diphosphate (IPP; Sigma) and 2 μl 50 μM dimethylallyl diphosphate (DMAPP; Sigma) and incubated at 30° C. for 2 h. Analysis of IDS enzyme products was done using an Agilent 1260 HPLC system (Agilent Technologies) coupled to an API 5000 triple-quadrupole mass spectrometer (AB Sciex Instruments) according to the protocol described by Beran et al. (Beran et al., 2016).

[4] = TPS activity assay of recombinant H. halys IDS-like proteins, GC-MS; type: biochemical, Halyomorpha halys
Description: Assays with heterologously expressed protein were performed in assay buffer (see above) in a total volume of 100 μl with partially purified protein, 1 mM DTT, and 50 μM allylic substrate [(E,E)-, (Z,E)- or (Z,Z)-FPP] and incubated at 30° C. for 1 h with a 100 μL hexane overlay. Assays were stopped on ice and compounds extracted by mixing (vortex) at maximum speed for 15 sec. Phases were separated by centrifugation at 4000×g for 10 min and the hexane phase was removed and dried over MgSO4. One μl of liquid sample was injected in splitless mode and analyzed by GC-MS.
as §2

[5] = IDS activity assay of recombinant H. halys HhIDS2, LC-MS; type: biochemical, Halyomorpha halys; settings: IPP and DMAPP
Description: as §3, with “μl […] dimethylallyl diphosphate” for “μl 50 μM dimethylallyl diphosphate”, “et al. (2016).” for “et al. (Beran et al., 2016).”

Molecule: CCC\C=C/C=C/C=C/C(=O)OC [MDT, methyl (E,E,Z)-2,4,6-decatrienoate]
- increase in captured bugs (H. halys): 70%

B1: MhTPS1: IDS-type sesquiterpene (sesquipiperitol) synthase of Murgantia histrionica, 385 aa, GenBank MG662378, SEQ ID NO: 1 (protein)
chain: MVSIAAKSLPKLSGAVFGQFSRRKQLIQRHWLDTRTDQYYDVLRRIVVPECKNIASDVPEYPERIEKLLYYTNPAFSDAWNFTTELIYRTVADESHQTEENITKMYLIRATMDLLFTMSAVLDDISDRSEFRKGKKGWHMICQGGESTALYDGTQMGLFPLYLLKQYFKNDPGYSRLLETVVMTYIKLTIGQTIDVLGQFKKSPSMAEYKRINYYKAGQFVAAGSELAVIHAGITSQDLIDKTVEIFTIAGQIIQTWDDFNDYYSSSEQNGKLSCDFMNAGTTWVSAKAMEVFTPSQAVKFMECYGSDDQSKMKTVQELYDEIDMPKLYTEYVLENYNRCETLIKELPHDRLREACSSYMEWLVVRETPDEDSEHKVALCLNISG
modifications: Murgantia histrionica “harlequin bug” Terpene Synthase (TPS)
- sesquiterpene synthase activity, product ([1]; (E,E)-FPP as a substrate, N-terminal His-tag, E. coli): a terpene alcohol as its main product
- pH of highest activity ([1]; (E,E)-FPP as substrate): 7
- sesquipiperitol production ([1]; (Z,E)-FPP as substrate): at lower levels
- enzymatic activity ([1]; (Z,Z)-FPP as the substrate): almost no enzymatic activity
- conversion of GPP, products ([1]; GPP as substrate): several monoterpene olefins
- increase of activity (relative amount of sesquipiperitol) ([1]; between 0.1 and 10 mM Mg^2+, (E,E)-FPP as substrate): approximately 2 fold
- formation of terpene products ([1]; incubated with IPP and DMAPP): no formation of terpene products
- Vmax [2]: 675.3±53.7 pkat/mg
- kcat [2]: 0.03 ± 0.003 s⁻¹
- Km ([2]; read-out: apparent Km): 4 ± 0.7 µM
- IDS activity: formation of FPP [3]: not observed

B2: HhIDS1: IDS-type sesquiterpene synthase of Halyomorpha halys, 377 amino acids, main product elemol, GenBank MG917093 (protein)
chain: MIPKTLGNFTGYVLRIALNKKHVNVRHKLDTDIGKYYQTLNDVVIPECMEFVKDAQGLPQRMKECIGYTTPYCYEGWNFCVELLYKTVADKPHQTEENLKKMRILRVLSDMSHSMHFILDDYADKAEFRQGKKIWASICEGGQEAAIYDTFTVNYLINCMLQRHFRNDPGFTKMCEMFSWVNGNSGIGQVLDILDHKNSDFSDYASWKNKVEYKSRNTMCAFPVLGLLHAGLTCNDLIHKTMDIFGDYGLMFQVWNDFMDFYSVQEESGKGNYDCKNNVKTWATITAMSHFNPAQAKEFRDCYGTNDPAKRSRVRELFDEIDLPRKYLDYLRNIRVTVEKKISELSDARVRDASTSYLEWLHGNGHHDVELEILKAP
modifications: HhTPS2
notes: IDS-type sesquiterpene synthase of Halyomorpha halys, 377 amino acids, main product elemol, GenBank MG917093
- sesquiterpene products ([4]; either (E,E)-FPP or (Z,E)-FPP as substrates): several sesquiterpene olefins and alcohols at low abundance

B3: HhIDS2: bona fide IDS enzyme of Halyomorpha halys making (E,E)-FPP, 403 amino acids, GenBank MG870389 (protein)
chain: MPFAKLCVQKLSNPLMKLCYPNLNGRLSLSKFSNSLDNSTFKFLSCNPHTICREHNTVAIRPQTITKDDKRDFMAVFPDIVRDLTQQDPGISDLSTLISKLMQYNVSGGKKVRGLTVVYSYRMLAPDHDLTPENIRLAQILGWCVEMLQGFFVVIDDLTDQSVTRRGRPCWYRLPGIGLRASSDALLIQAGTFQLLQQHCKDKEFYVDLVELFLDATRRTTYGQTLDLVSSFPNITHLTMDRYNFITKYKTSYYTFHLPVAIAMYMAGIYNTELHRQAKSVLLEMGHYFQVQDDYLDVFSDEEVSGKKGTDIQEGKCTWLAIIAFQRASPSQREILESCYGSKDPEKIQKVKDIFIEIGLPAVFHAYEEETYNLITRQIQQLSEGLPHELFLTLLHKMYGRKQ
modifications: HhFPPS
notes: bona fide IDS enzyme of Halyomorpha halys making (E,E)-FPP, 403 amino acids, GenBank MG870389
- terpene product formation ([4]; FPP isomers as substrate): did not produce a terpene product
- IDS activity: product [5]: only (E,E)-FPP

Source: patent publication US12618081B2, “Brown marmorated and harlequin stink bug pheromone enzyme synthesis and uses thereof” (VIRGINIA TECH INTELLECTUAL PROPERTIES, INC., priority 2019, dated 2026)
